B1: GST-FAN1-NTD (aa 1-372) (domain or fragment, human, UniProt Q9Y2M0 1-372, looked up)
chain: MMSEGKPPDKKRPRRSLSISKNKKKASNSIISCFNNAPPAKLACPVCSKMVPRYDLNRHLDEMCANNDFVQVDPGQVGLINSNVSMVDLTSVTLEDVTPKKSPPPKTNLTPGQSDSAKREVKQKISPYFKSNDVVCKNQDELRNRSVKVICLGSLASKLSRKYVKAKKSIDKDEEFAGSSPQSSKSTVVKSLIDNSSEIEDEDQILENSSQKENVFKCDSLKEECIPEHMVRGSKIMEAESQKATRECEKSALTPGFSDNAIMLFSPDFTLRNTLKSTSEDSLVKQECIKEVVEKREACHCEEVKMTVASEAKIQLSDSEAKSHSSADDASAWSNIQEAPLQDDSCLNNDIPHSIPLEQGSSCNGPGQTTGH
notes: also called GST-tagged FAN1; source: E. coli BL21-CodonPlus RIL, purified from soluble extracts on Glutathione Sepharose beads
B2: USP7 UBL domain (residues 520-1067), biotinylated (domain or fragment, human, UniProt Q93009 520-1067, looked up)
chain: RESKLSEVLQAVTDHDIPQQLVERLQEEKRIEAQKRKERQEAHLYMQVQIVAEDQFCGHQGNDMYDEEKVKYTVFKVLKNSSLAEFVQSLSQTMGFPQDQIRLWPMQARSNGTKRPAMLDNEADGNKTMIELSDNENPWTIFLETVDPELAASGATLPKFDKDHDVMLFLKMYDPKTRSLNYCGHIYTPISCKIRDLLPVMCDRAGFIQDTSLILYEEVKPNLTERIQDYDVSLDKALDELMDGDIIVFQKDDPENDNSELPTAKEYFRDLYHRVDVIFCDKTIPNDPGFVVTLSNRMNYFQVAKTVAQRLNTDPMLLQFFKSQGYRDGPGNPLRHNYEGTLRDLLQFFKPRQPKKLYYQQLKMKITDFENRRSFKCIWLNSQFREEEITLYPDKHGCVRDLLEECKKAVELGEKASGKLRLLEIVSYKIIGVHQEDELLECLSPATSRTFRIEEIPLDQVDIDKENEMLVTVAHFHKEVFGTFGIPFLLRIHQGEHFREVMKRIQSLLDIQEKEFEKFKFAIVMMGRHQYINEDEYEVNLKDFEPQP
modifications: biotin (on the AviTag)
notes: human USP7 UBL domain, residues 520-1067; p28BIOH-LIC vector; also called USP7 UBL domains; source: E. coli BL21(DE3)-pBirAcm, purified (TALON, SEC); not shown: AviTag, N-terminal, kept

How the values were obtained:
[1] = target: T1, purified recombinant His-USP7, full-length (human, UniProt Q93009 1-1102); test: pull-down; GST-FAN1-NTD on Glutathione Sepharose beads, 0.5 µg recombinant His-USP7, 1 h at 4 °C in PBS-1% Triton; washes with 300 mM NaCl; immunoblotting; settings: both partners purified
T1 construct: human USP7, recombinant, full-length; also called human recombinant USP7; source: bought: R&D Systems (# E-519)

[2] = target: T2, recombinant full length His6-MBP-FAN1-His6 (human, UniProt Q9Y2M0 1-1017); test: pull-down; in vitro streptavidin pull-down with recombinant biotin-tagged USP7 TRAF-like or UBL domains and MBP-His-tagged FAN1 (Figure S3A); settings: both partners purified
T2 construct: human FAN1, full length; Tag ends are read from the printed name His6-MBP-FAN1-His6; also called MBP-His-tagged FAN1; recombinant human FAN1; source: E. coli BL21, purified (HisTrap, MBPTrap, desalting); not shown: His6, N-terminal, kept; MBP, N-terminal, kept; His6, C-terminal, kept
T2 sequence (looked up): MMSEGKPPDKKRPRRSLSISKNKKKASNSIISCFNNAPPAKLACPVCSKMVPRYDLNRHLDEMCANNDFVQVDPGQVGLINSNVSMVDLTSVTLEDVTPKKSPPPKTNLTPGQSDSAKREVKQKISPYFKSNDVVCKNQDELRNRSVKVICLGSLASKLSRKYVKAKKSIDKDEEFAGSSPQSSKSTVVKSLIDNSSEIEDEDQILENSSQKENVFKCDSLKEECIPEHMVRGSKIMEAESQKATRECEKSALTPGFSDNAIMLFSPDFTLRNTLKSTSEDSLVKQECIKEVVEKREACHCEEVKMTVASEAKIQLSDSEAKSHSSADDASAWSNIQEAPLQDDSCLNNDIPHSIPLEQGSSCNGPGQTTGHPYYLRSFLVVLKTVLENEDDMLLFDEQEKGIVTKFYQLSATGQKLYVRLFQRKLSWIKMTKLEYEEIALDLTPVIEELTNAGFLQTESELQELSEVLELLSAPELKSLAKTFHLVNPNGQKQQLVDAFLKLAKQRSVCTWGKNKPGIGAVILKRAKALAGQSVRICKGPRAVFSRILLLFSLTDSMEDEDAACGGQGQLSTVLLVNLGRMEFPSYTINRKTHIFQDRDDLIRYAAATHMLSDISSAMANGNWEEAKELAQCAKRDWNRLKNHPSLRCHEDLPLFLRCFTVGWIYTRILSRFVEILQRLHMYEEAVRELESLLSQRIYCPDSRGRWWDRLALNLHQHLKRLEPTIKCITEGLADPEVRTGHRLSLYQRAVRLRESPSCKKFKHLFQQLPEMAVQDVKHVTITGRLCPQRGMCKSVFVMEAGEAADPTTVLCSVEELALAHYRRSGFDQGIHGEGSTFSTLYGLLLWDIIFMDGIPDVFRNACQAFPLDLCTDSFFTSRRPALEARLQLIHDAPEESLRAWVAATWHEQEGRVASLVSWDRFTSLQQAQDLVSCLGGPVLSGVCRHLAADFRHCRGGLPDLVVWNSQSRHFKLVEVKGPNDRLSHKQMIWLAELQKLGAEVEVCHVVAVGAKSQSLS

T1 sequence (Q93009 whole entry): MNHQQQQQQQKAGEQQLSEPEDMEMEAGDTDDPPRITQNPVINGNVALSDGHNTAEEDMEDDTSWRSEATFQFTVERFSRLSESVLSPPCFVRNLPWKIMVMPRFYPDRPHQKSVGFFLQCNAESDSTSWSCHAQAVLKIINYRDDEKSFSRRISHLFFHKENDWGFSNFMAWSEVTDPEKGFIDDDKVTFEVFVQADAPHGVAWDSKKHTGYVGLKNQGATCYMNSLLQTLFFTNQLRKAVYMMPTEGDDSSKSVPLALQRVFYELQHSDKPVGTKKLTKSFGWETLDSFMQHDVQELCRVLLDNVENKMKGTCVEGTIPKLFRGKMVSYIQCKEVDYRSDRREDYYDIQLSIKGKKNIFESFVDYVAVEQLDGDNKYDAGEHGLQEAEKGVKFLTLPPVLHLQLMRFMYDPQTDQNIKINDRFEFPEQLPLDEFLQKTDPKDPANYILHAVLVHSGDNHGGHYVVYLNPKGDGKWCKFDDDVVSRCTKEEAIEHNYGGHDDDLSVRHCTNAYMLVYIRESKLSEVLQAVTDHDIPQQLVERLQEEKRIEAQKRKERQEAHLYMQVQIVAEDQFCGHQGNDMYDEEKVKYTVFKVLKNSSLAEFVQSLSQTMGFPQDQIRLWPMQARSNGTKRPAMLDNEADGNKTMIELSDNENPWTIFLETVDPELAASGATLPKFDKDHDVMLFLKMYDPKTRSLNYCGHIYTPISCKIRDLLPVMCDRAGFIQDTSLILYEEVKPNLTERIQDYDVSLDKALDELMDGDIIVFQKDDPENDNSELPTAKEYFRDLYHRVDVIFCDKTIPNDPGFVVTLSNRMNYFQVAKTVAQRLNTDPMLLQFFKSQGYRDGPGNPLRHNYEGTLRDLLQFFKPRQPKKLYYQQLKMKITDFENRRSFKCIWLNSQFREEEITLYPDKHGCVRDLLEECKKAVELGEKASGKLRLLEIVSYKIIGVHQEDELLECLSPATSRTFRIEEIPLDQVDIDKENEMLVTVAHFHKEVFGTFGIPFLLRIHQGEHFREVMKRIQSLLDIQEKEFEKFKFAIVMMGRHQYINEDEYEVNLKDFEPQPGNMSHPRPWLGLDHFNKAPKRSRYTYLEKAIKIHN

Binder	binding result [1]	binding result [2]
B1	binds	
B2		binds
